Assay [1] has as its target Vpu-S52/56D, full-length Vpu (NL4-3) double mutant (HIV-1 strain NL4-3). The assay can be described thus: SEC; time-dependent SEC from a stock solution over up to 12 days in 50 mM NaCl buffer; peak area P1/(P1+P2) over time fitted with a logistic growth function (dimer to higher oligomer).
Assay [2] concerns the target Vpu-S52/56N, full-length Vpu (NL4-3) double mutant (HIV-1 strain NL4-3). Described as above.

Growth rate c of the higher oligomer (logistic fit of P1/(P1+P2) over time) data for two substances are collected here from PMC4926278.

In assay [1], “Vpu-S52/56D, full-length Vpu (NL4-3) double mutant (natural protein)” gave a growth rate c of the higher oligomer (logistic fit of P1/(P1+P2) over time) of 0.56 day^−1.

As for “Vpu-S52/56N, full-length Vpu (NL4-3) double mutant (natural protein)”, the growth rate c of the higher oligomer (logistic fit of P1/(P1+P2) over time) in assay [2] was determined as 1.05 day^−1.
